Experimental data reported in the nanobody polyreactivity screen of Harvey et al. (2022).

experiment: yeast display, Sf9 membrane polyspecificity reagent, FACS + sequencing; frameworks hold sequencing errors
In short: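 In a synthetic yeast display library (Saccharomyces cerevisiae BJ5465), nanobody expression was induced with galactose for 36–48 hours. FACS gates were set low and high (top ~1%) using anti-HA fluorescence for expression and streptavidin fluorescence for binding of the Sf9 membrane reagent. Each polyreactivity label is drawn from the gate of origin.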

Row | Sequence | polyreactivity (PSR sort gate)
1 | QVQLVESGGGLVQAGGSLRLSCAASGIIFTHNAMGWYRQAPGKERELVAAISWSGGSTYYADSVKGRFTISRDNAKNTVYLQMNSLKPEDTAVYYCNAKFKQSYAQVAKFNSWGQGTQVTVSS | low polyreactivity
2 | QVQLVESGGGLVQAGGSLRLSCAASGIIYRQNAMGWYRQATRKEREFVAAISSGGNTYYADSVKGRFTISRDNAKNTVYLQMNSLKPEDTGFYYCAADVEDRYHRAWFDYWGQGTKVTVSS | low polyreactivity
3 | QVQLVESGGGLVQAGVSLSLSCAGSGFIFFQYPMGWYRDAPGKDRELVAAISGSGVTTYYADSVKGRFTISRDYAKKTVYLQMNSLKPEDTAVYYCAALHYRIRRTGMDYWGQGTQVTVSS | low polyreactivity
4 | QEQLQESGSGLVQAGGSLRLSCAASGNIFQDWFMGWYRQAPGKERELVAAISPGANTNYADSVKGRFTISRDNAKNSVYLQMNSLKPEDTAVYYCAAESLFDDYYGYWGQGTQVTVSS | low polyreactivity
5 | QVQLVESGGGLVQAGGSLRLSCAASGRIFAFYAMGGYRQAPGKERELVAAITSGGSTKYADSVKGRFTISRDNAKNTVYLHMKSLKPEDTAVYYSAAQYRYQRYSDAMEYWGQGTQVTVSS | high polyreactivity
6 | QVQLVESGGGLVQAGGSLRLSCAASGIIFWWYAMGWSRQAPGKERELVAAISGTGGSTYYADSVKGRFTISRDNAKNTVYLQMNSLKPEDTAVYYCAKRASPFWRGYDSWGQGTQVTVSS | low polyreactivity
7 | QVQLVESGGGLVQSGGSLRLSCAGSGSTFHYNAMGWYRQAPGKEREFVAAISRTGTSTYYADSVKGRFTISRDNAKNTVYLQMNSLKPEDTAVYYFAAKSLRSGMGYWGQGTQVTVSS | high polyreactivity
8 | QVQLVESGGGLVQAGGSLRLSCAASGRTFRGNAMGWYRQAPGKERELVAAISGSGGRTYYADSVKGRFTISRDNAKNTVYLKMNSLKPEDTAVFYCAAKRGKTYQRFDYWGQGTQVTVSS | high polyreactivity
9 | QVQLVESGGGLVQAGGSLRLSCAASGITFITYAMGWYRQAPGKERELVAAISIRGGSTYYADSVKGRFTISRDNAKNTVYLQMNSLKPEDTAVYYCAKDNRSYTYDYWGQGTQVTVSS | low polyreactivity
10 | QVQLVESGGGLVQAGGSLRLSCAASGSIFDYYAMGWYRQAPGKERELVAAISGTGGSTYYADSVKGRFTISRDNAKNTVYLQMNSLKPEDTAVYYCNAGRHILTALRNDGTFDYWGQGTQVTVSS | high polyreactivity
11 | QVQLVESGGGLVQAGGSLRLSCAASGSTFFPYAMGWYRPAPGKERELVAAIRWSGGRTYYADSVKGRFTISRDNAKNTVYLQMNSLKPEDTAVYYCAADKYLDYDYWGQGTQVTVSS | high polyreactivity
12 | QVQLVESGGGLVQAGGSLRLSCAASGSIIYANAMGWYRQAPGKEREFVATITDSGAITYYADSVKGRFTISRDNAKNTVYLQMISLKPEDTAVYYCNKDLVVYSVPTHDYDYWGQGTQVTVSS | low polyreactivity
13 | QVQLVESGGGLVQAGGSLRLSCAASGFIFRYYAMGWYRQAPGKERELVAAISWSGGTTYYADSVKGRFTISRDNAKNTVYLQMNSLKPEDTAVYYCAARVARISVPYDYWGQGTEVTVSS | low polyreactivity
14 | QVQHVESGGGLVQAGGSLRLSCAASGITFVDNAMGWYRQAPGKEREWVAVISSSGGSTYYADSVKGRFTISRDNAKNSVYLQMNSLKPEDTAVYYCAARNRFYRRPYDYWGQGTQVTVSS | high polyreactivity
15 | QVQLVESGGGLVQAGGSLRLSCAASGFIFNLYAMGWYRQAPGKEREFVAGISYSGNTYYADSVKGRFTISRDNAKNTVYLQMNSLKPEDTAVYYCAARRGYNDGYWGQGTKVTVSS | high polyreactivity
16 | QVQLVESGGGLVQAGGSLRLSCAASGSIFNYYAMGWYRQAPGKEREFVAGITTSGGSTYYADSVKGRFTISRDNAKNTVCLQMNSLKPEDTAVYYCAAYDYISSTYFLDDYWGQGTQVTVSS | low polyreactivity
17 | QVQLVESGGGLVQAGGSLRLSCAASGSTFDPYAMGWYRQAPGKERELVAAISRSGASTYADSVKGRFTISRDNAKNTVYLQMNSLKPEDTAVYYCAADSGYPYDYWGQGTQVTVSS | low polyreactivity
18 | QVHLQESGGGLVQAGGSLRLSCAASGNIVDADIMGWYRQAPGKERELVASITDGGSTNYADSVKGRFTISRDNAKNTVYLQMNSLKPEDTAVYYCAAIGYPDIPTYFDYDSEYFYWGQGTQVTVSS | low polyreactivity
19 | QVQLVESGGGLVQAGGSLRLSCAASGISFYSYTMGWYIQAPGKERELVAAIRGSDGSTYYADSVKGRFTLSRDNAKNTVYLQMNSLKPEVTAVYYCNRKFYWRRDYWGQGTQVTVSS | high polyreactivity
20 | QVQLVESGGGLVQAGGSLRLSCAASGRNIYTNAMGWYRQAPGKERELVAAINRSGGITYYADSVKGRFTISRDNAKNTVDLQMNSLKPEDTAVYYCAKDYSWASYNHDYWGQGTQVTVSS | low polyreactivity
21 | QDQLVESGGGLVQAGGSQRLSCAASGFTFRRYAMGWYRQEPGKERELVAVITTAGSTNYADSVKGRFTISRDNAKNTVYLPMNSLKPEDTAVYYCATDNGTRKGRYDYWGQGTQVTVSS | low polyreactivity
22 | QVQLVESGGGLVQAGGSLRLSCAASGSTFAKYAMGWSRQAPGKEREFVAAITASGGRTFYADSVKGRFTISRDNAKNTVYLQMNSLKPEDSAVYYCAADVVPTWYGYNYDYWGQGTQVTVSS | high polyreactivity

Row | Sequence | polyreactivity (PSR sort gate)
23 | QDQHVQSGVGIVQAVGSLRLSCAASGFTIPSYAMGWYRMAPGKEREFVAAISWNSGSTYYADSVKGRFTISRDNAKNTVYLQMNSLKPEDTAVYYCNAGAYVRRRYAPGYSFEYDSWGQGTQVTVSS | high polyreactivity
24 | QVQLVESGGGLDQAGGSLRLSCAASGLISYRNAMGWYRQAPGKERELVAAISSDGSTYYADSVKGRFTISRDNAKNSVYLQMNSLKPEDTAVYYCNADVFRKFGSPSAYKSHRYDYWGQGTQVTVSS | low polyreactivity
25 | QVQLVESGGALVQAGGSLRISCAASGRTLSAYAMGLYRQAPGKERELVAVISRSGGRTYYADSVKGRFTISRDNAKNTVYLQMNSLKQEDSAVYYCAAGSSRLRALYNYWGQGTQVNVSS | high polyreactivity
26 | QDQLVESGGGLVQAGGSLRLISAASGSTFRKYAMGWYRQAPGKEREFVAASTKRGGSTYYADSVKGRFTISRDNAKNTVYLLLNSLKPEDTAVYYCAAYKQDIGYYWGQGTQVTVSS | high polyreactivity
27 | QDQLVESGGGLVQAGGSLGLSCAASGLTFSYYAMAWYRQAPGKERELVAAIDYSGGTTYADSVKGRFTISRDNAKNTVYLQMNSLKPEDTAVYYCADAPDGWFASGDEYWGQGTQVTVSS | high polyreactivity
28 | QVQLVESGGGLVQAGGSLRLSCAASGRTFGGYTMGWYRQAPGKERALVAAIRWSGGRTYYADSVKGRFTISRDNAKNTVYLQMNSLKPEDTAVYYCNARYVFPYYWGQGTQVTVSS | high polyreactivity
29 | QVQLVESGGGLVQAGGSLRLSCAASGFTFGSNAMGWYRQAPGKERELVAAISSRGGRTYYADSVKGRFTISRDNAKNTVYLQMNSLKPEDTAVYYCNADATVAWREQEYEYWGQGTQVTVSS | high polyreactivity
30 | QVQLVESGGGLVQAGGSLRLSCAASGSIYWYAMGWYRQAPGKERQLVAAITKSGSSTYYADSVKGRFTISRDNAKNTVYLQMNSLIPEDTAVYYCAARRAVSGGVRTYYWGQGTQVTVSS | high polyreactivity
31 | QVQLVESGGGLVQAGGSLRLSCAASGSIFIYYAMGWYRQAPGKEMELVAAISSSGGSTYYADSVKGRFTISRDNAKNTVYLQMNSLKPEDTAVYYCAAAYGGRLRYTAGYYWGQGTQVTVSS | high polyreactivity
32 | QVQLVESGGGLVQAGCSLRLSCAASGGTFGRYAMGWYRQAPGTERELVASITTGGRTNYADSVKGRFTISRDNAKNTVYLQMNSLKPEDTAVYYCAKKRYGYPVPFYYWGQGTQVTVSS | high polyreactivity
33 | QVQLVESGGGLVQAGGSLRLICAASGFIFYPYAMGWYRQAPGKERELVAVITSGGRTYYADSVKGRFTISRDNAKNTVYLQMNSLKPEDTAVYYCNADTFQWWDIADVYVIVKYGYWGQGTQVTVSS | low polyreactivity
34 | QVQLVESGGGLVQAGGSLRLRCAASGSTFAWYAMGWYRQAPGKERELVAAISRTGRTYYADSVKGRFTISRDNAKNTVYLQMNSLKPEDTAVYYCAARIERFYRDQRYDYWGQGTQVTVSS | high polyreactivity
35 | QVQLVESGAGLVQAGGSLRLSCAASVSIFDIYAMGWYRQAPGKERELVADISWSGGSTYYADSVKGRFTISRDNAKNSVYLQMNSLKPEDTAVFDCAAELYGFTVDPGDYWGQGTQVTVSS | low polyreactivity
36 | QVQLVESGGGLVQAGGSLRLSCAASGSTFSLYAMGWYRQAPGKERELVAAISKRGDDTYYADSVKGRFTISRDNAKNTVYLQMNSLKPEDTAVYYCAAEYAAYEYRYWWYDYWGQGTQVTVSS | high polyreactivity
37 | QVQLVESGGRLVQAGGSLRLICAASGFTFWYYAIGWYRQAPGKESEFVASISWNGGRTYYADSVKGRFTISRDNAKNTVYLQMNSLKPEDTAVYYCATRVIYSFTDFKGDYWGQGTQVTVSS | high polyreactivity
38 | QDQLVESRGGLVQAGGSLRLICDASGFTFDSNAMVWYRQEPGKERQLVAAISARGTSTYYADSVKGRFTISRDNAKNTVYLQMNSLKPEDTAVYDCNTGESSWYLPEEDYWGQGTQVTLSS | low polyreactivity
39 | QVQLVESGGGLVQAGGSLRLSCAASGFTFSKYAMGWYRQAPGKERELVAAITSGDDTNYADSVKGRFTISRDNAKNTVYLQMNSLKPEDTAVYYCNAEYTVYYSYWAIGVDYWGQGTQVTVSS | high polyreactivity
40 | QVQLVESGGGLVQAGGSLRLSCAASGSTFYFNAMGWYRQAPGKERELVAGIRYSGSSTYYADSVKGRFTISRDNAKNTVYLQMNSLKPEYTAVYYCAAERWWYTVRGYGYWGQGTQVTVSS | high polyreactivity
41 | QLQLVESGGGLVQAGGSLRLSCAASGRTFPGNAMGWYRQEPGKERELVATITWSSGRTHYADSVKGRFTISRDNAKNTVYLQMNSLKPEDTAVYYCAAKWIVAVGGFYYWGQGTQVTVSS | low polyreactivity
42 | QVQLEESRGGLVQAGGSLRLSCAASGYIFSYYDMGWYRQAPGKERELVASITSSGGSTYYADSVKGRFTISRDNGKNTVYLQMNSLKPEDTAVYYCNADVYDTYSPLGYYFWGQGTQVTVSS | low polyreactivity
43 | QVQLVESGGGLVQAGGSLRLSCDASALTIITNAMGWYRQAPGKERELVAAISGTGGSTYYADSVKGRFTISRDNAKYTVYLQMNSLKPEDTAVYYCAAAPYTFWVGDSWGQGTQVTVSS | high polyreactivity
